Consider 1 substance from patent publication US5990092.

This series addresses GATA-6 (Homo sapiens) (UniProt Q92908). Nature of the series: cell_activity. To be noted: luciferase transactivation in p53-/- MEFs.

Sequence of GATA-6 (Homo sapiens) (Q92908 147-595): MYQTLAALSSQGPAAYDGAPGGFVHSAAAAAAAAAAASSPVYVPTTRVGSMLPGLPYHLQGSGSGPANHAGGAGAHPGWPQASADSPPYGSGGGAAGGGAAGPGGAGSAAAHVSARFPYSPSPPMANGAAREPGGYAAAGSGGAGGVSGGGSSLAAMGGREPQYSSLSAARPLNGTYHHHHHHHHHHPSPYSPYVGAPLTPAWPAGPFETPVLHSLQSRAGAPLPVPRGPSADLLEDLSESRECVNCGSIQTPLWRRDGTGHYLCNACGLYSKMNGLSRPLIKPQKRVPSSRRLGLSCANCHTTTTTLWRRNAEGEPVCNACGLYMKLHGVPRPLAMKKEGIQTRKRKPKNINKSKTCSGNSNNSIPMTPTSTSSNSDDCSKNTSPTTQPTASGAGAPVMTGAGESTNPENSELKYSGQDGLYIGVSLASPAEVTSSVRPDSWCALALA

As to p21 promoter 3.8 kbp, the activity amounted to 3.7 fold.
